Experiments:
mouse RANTES/CCL5 = target: T1, mouse RANTES/CCL5 (mouse, UniProt P30882 24-91); assay: MSD electrochemiluminescence, chemokine coated at 1 µg/mL
T1 construct: also called muRANTES

HCC-4 = target: T2, HCC-4; assay: MSD electrochemiluminescence assay; chemokine coated at 1 µg/mL, 7D1G at 3 µg/mL; background = BSA
T2 construct: also called HCC-4/CCL16; CCL16
T2 chemokine: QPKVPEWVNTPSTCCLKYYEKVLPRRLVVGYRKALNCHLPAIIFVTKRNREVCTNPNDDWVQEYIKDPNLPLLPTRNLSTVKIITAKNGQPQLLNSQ

Eotaxin = target: T3, Eotaxin; assay: as above
T3 construct: also called Eotaxin/CCL11; CCL11

MDC = target: T4, MDC; assay: as above
T4 construct: also called MDC/CCL22; CCL22
T4 chemokine: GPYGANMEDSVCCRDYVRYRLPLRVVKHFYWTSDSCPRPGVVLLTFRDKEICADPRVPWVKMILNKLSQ

IL-8 = target: T5, IL-8; assay: as above
T5 construct: also called IL-8/CXCL8; CXCL8

I-309 = target: T6, I-309; assay: as above
T6 construct: also called I-309/CCL1; CCL1
T6 chemokine: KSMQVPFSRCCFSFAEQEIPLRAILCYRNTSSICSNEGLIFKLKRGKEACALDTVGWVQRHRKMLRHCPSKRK

human MCP-1/CCL2 [1] = target: T7, human MCP-1/CCL2 (human, UniProt P13500 24-99); assay: as above
T7 construct: also called Biotin-MCP1

human HCC-1/CCL14/CCL14a = target: T8, human HCC-1/CCL14/CCL14a (human, UniProt Q16627 28-93); assay: as above
T8 sequence: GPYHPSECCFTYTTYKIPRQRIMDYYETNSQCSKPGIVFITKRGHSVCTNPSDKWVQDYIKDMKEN

MCP-4 = target: T9, MCP-4; assay: as above
T9 construct: also called MCP-4/CCL13; CCL13

SDF = target: T10, SDF; assay: as above
T10 construct: also called SDF-1/CXCL12; CXCL12

Fractalkine = target: T11, Fractalkine; assay: as above
T11 construct: also called Fractalkine/CX3CL1; CX3CL1
T11 chemokine: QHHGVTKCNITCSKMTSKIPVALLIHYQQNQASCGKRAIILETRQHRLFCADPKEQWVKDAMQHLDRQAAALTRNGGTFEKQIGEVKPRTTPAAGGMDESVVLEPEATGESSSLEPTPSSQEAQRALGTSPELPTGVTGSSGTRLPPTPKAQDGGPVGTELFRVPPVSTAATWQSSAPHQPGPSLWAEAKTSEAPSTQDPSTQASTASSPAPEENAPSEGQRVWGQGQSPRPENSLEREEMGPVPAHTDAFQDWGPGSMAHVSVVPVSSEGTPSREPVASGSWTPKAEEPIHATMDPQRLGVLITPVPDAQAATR

MCP-3 = target: T12, MCP-3; assay: as above
T12 construct: also called MCP-3/CCL7; CCL7

MCP-2 = target: T13, MCP-2; assay: as above
T13 construct: also called MCP-2/CCL8; CCL8
T13 chemokine: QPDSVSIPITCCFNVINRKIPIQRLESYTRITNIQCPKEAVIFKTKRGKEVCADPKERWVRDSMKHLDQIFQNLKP

human MIP-1β/CCL4 = target: T14, human MIP-1β/CCL4 (human, UniProt Q8NHW4 24-92); assay: ELISA, hybridoma fusion-well supernatant on biotinylated chemokine on streptavidin plate; background approx. 0.150
T14 construct: also called Biotin-MIP-1β
T14 chain: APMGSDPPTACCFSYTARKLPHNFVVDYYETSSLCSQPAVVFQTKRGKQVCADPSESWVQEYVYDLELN

human RANTES/CCL5 = target: T15, human RANTES/CCL5 (human, UniProt P13501 24-91); assay: as above
T15 construct: also called Biotin-RANTES
T15 sequence: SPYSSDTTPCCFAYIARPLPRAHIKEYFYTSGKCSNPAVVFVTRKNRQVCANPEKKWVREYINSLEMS

human MCP-1/CCL2 [2] = target: T7, human MCP-1/CCL2; assay: as above
human MIP-1α/CCL3 = target: T16, human MIP-1α/CCL3 (human, UniProt P10147 24-92); assay: ELISA, hybridoma fusion-well supernatant on coated MIP-1α; background approx. 0.150
T16 construct: also called Biotin-MIP-1α
T16 sequence: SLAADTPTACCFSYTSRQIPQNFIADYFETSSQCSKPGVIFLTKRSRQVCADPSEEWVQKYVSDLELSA

mouse MIP-1α/CCL3 = target: T17, mouse MIP-1α/CCL3 (mouse, UniProt P10855 24-92); assay: Binding (MSD)
T17 construct: also called muMIP-1α
T17 sequence: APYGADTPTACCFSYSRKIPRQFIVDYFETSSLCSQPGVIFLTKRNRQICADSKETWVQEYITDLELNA

mouse MIP-1β/CCL4 = target: T18, mouse MIP-1β/CCL4 (mouse, UniProt P14097 24-92); assay: Binding (MSD)
T18 construct: also called muMIP-1β
T18 sequence: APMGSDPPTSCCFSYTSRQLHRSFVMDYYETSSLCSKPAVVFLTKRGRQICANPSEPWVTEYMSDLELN

T7 sequence (P13500 24-99 limits assumed): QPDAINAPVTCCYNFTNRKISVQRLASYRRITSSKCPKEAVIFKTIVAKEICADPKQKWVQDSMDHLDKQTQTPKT
T12 sequence (chemokine, as listed by the source): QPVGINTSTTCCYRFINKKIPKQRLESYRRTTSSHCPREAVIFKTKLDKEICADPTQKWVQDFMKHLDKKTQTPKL
T9 sequence (chemokine, as listed by the source): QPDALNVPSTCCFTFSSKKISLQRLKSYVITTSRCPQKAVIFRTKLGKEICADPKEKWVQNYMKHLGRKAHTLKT
T5 sequence (chemokine, as listed by the source): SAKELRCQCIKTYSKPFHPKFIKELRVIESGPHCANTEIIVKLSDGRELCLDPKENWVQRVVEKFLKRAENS
T1 sequence (P30882 24-91 limits assumed): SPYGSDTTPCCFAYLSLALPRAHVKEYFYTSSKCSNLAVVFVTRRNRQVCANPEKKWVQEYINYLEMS
T3 sequence (chemokine, as listed by the source): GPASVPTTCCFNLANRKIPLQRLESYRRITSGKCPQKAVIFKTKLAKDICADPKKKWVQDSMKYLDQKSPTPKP
T10 sequence (chemokine, as listed by the source): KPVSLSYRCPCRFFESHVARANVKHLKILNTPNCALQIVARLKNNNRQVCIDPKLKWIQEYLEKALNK

binding result (mouse RANTES/CCL5): no binding (tested: 3 µg/mL)
binding result (HCC-4): no binding (tested: 3 µg/mL)
binding result (Eotaxin): no binding (tested: 3 µg/mL)
binding result (MDC): no binding (tested: 3 µg/mL)
binding result (IL-8): no binding (tested: 3 µg/mL)
binding result (I-309): no binding (tested: 3 µg/mL)
binding result (human MCP-1/CCL2 [1]): no binding (tested: 3 µg/mL)
binding result (human HCC-1/CCL14/CCL14a): binds
binding result (MCP-4): no binding (tested: 3 µg/mL)
binding result (SDF): no binding (tested: 3 µg/mL)
binding result (Fractalkine): no binding (tested: 3 µg/mL)
binding result (MCP-3): no binding (tested: 3 µg/mL)
binding result (MCP-2): no binding (tested: 3 µg/mL)
ELISA signal (human MIP-1β/CCL4): 2.57
ELISA signal (human RANTES/CCL5): 0.145
ELISA signal (human MCP-1/CCL2 [2]): 0.22
ELISA signal (human MIP-1α/CCL3): 1.7
binding result (mouse MIP-1α/CCL3): binds
binding result (mouse MIP-1β/CCL4): binds
B1: monoclonal antibody 7D1G (antibody, V domains shown)
VH: QVQLQQPGAELVKPGASVKMSCKASGYTFTSYNIHWVKQTPGQGLEWIGAVSPRNGDTSYNQRFKGKATLTADISSSTAYMQLSSLTSEDSAVYYCARGYGYDYWGQGTTLTVSS
VL: DVVLTQSPATLSVTPGDRVSLSCRASQSVSKYLHWYQQKSHESPRLLIKYVSQSISGIPSRFSGSGSGTDFTLSINSVETEDLGMYFCQQSNSWPHTFGAGTKLELK
notes: also called MAb 7D1G

Source: patent US20150166647A1 (VLST, published 2015)
